Experimental findings from patent US20060253917A1 (published 2006) are described below.

T1: OsCS aa 316-583 (Oryza sativa, UniProt A2Y0X2 316-583)
T1 construct: bait, Gal4 DBD fusion; also called PN19707
T1 sequence: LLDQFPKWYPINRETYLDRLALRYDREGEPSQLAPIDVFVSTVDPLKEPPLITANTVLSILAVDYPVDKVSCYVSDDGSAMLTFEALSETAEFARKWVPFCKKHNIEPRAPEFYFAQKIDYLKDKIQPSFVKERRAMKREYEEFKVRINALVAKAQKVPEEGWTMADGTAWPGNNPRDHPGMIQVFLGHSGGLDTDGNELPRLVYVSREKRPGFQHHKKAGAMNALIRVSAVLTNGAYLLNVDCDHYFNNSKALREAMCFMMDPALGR

T2: OsMADS45 aa 50-198 (Oryza sativa, UniProt P0C5B0 50-198)
T2 construct: bait, Gal4 DBD fusion; also called PN20231; O. sativa MADS box protein MADS45
T2 sequence: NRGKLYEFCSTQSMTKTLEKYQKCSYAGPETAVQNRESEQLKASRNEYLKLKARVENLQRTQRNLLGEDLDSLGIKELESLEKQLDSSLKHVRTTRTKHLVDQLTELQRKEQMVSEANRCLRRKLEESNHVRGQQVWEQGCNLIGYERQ

B1: OsPN29117 prey clone -7-151 (other)
chain: MLVQRRDGDTGPAVRLRVSHGASFRDVAVPAHSTFGELKGVLTQATGVEPERQRLFFRGKEKSDNEFLHTAGVKDGAKLLLLEKPAPANVEQRAEPVIMDESMMKACEAVGRVRAEVDRLSAKVCDLEKSVFAGRKIEDKDFVVLTELLMM
notes: prey, AD fusion; clone includes a small portion (-7 to 0) of the 5' untranslated region; also called Novel Protein PN29117
B2: OsPN29077 aa 1-242 (other)
chain: VEAQKKIEAAIRQKGIDENWEAALEHNPEAFARVVMLYVDMEVNGVPLKAFVDSGAQSTIISKSCAERCGLLRLLDQRYRGVAIGVGQSEILGRIHVAPIKIGHVFYPCSFTVLDAPNMEFLFGLDMLRKHQCIIDLKDNVLRVGGGEVSVPFLQEKDIPSHIRDEEKLSKLASLSQGAAGESSTAREKTPDAPPRAPTTGAPAVNPPQPQGGGDFEAKVTKLVELGFDRASVIQALKLFNG
notes: prey, AD fusion; also called Novel Protein PN29077, Fragment, Similar to A. thaliana DNA-Damage Inducible Protein DDI1-Like
B3: OsPN29113 aa 1-92 (other)
chain: CKVSYIDAILGTTVKVPTVDGMVDLKIPSGTQPGTTLVMSKKGVPLLGKSNARGDQLVRVQVEIPKRLSSDERKLIEELANLNKAQTANSRR
notes: prey, AD fusion; also called O. sativa DNAJ Homologue
B4: OsPN29116 aa 1-169 (other)
chain: GRKPVAAQHYNKGDKDGTSTGSRCTSVAWVPEREGIFVVSHSDGNLYVYDKCKDGNTECTFPAIKDPAQLMISHAKSSKSNPIARWHVCQGSINAISFSPDGAYLATVGRDGYLRVFDFSKEQLIFGGKSYYGALLCCTWSSDGKYLLTGGEDDLVQVWSMDDRKIVAW
notes: prey, AD fusion; also called Novel Protein PN29116, Fragment
B5: OsPN29115 aa 1-188 (other)
chain: VSFPYSPRPAALAAGARASRVSPVVVAAGGGHQRLMGSLTNTQGLRFGVVVARFNEIVTNLLLQGALETFERYSVKKENITVLSVPGSFEIPVAAQKLGKSGKFDANFVHWRCAFRGDTTHYGAVANSAASGVLSAGLSAEIPCIFGVLTCDDMDQALNRAGGKAGNKGAEAALTAIEMASLFQHHLA
notes: prey, AD fusion; also called Novel Protein PN29115, Fragment, Similar to A. thaliana 6,7-Dimethyl-8-Ribityllumazine Synthase Precursor
B6: OsPN29084 aa 1-253 (other)
chain: ESGIFRQILRGKLDLESDPWPSISDSAKDLVRNMLIRDPTKRFTAHEVLCHPWIVDDAVAPDKPIDSAVLSRLKHFSAMNKLKKMALRVIAESLSEEEIGGLKELFKMIDTDNSGTITYDELKNGLKRVGSDLMEPEIQALMDAADIDNSGTIDYGEFLAATLHMNKLEREENLVSAFTFFDKDGSGFITIDELSQACEQFGLSDVHLEDMIKDVDQNNDGQIDYSEFAAMMRKGNAGGANAGGVTSTGGTGR
notes: prey, AD fusion; also called Novel Protein PN29084, Fragment, Similar to Soybean Calcium-Dependent Protein Kinase
B7: OsFDRMADS8 aa 63-186 (other)
chain: LQKTIDRYKAYTKDHVNNKTIQQDIQQVKDDTLGLAKKLEALDESRRKILGENLEGCSIEELRGLEMKLEKSLHNIRLKKTELLERQIAKLKEKERTLLKDNENLRGKHRNLEAAALVANHMTT
notes: prey, AD fusion; also called PN20698
B8: OsMADS3 aa 48-177 (other)
chain: FSSRGRLYEYANNSVKSTVERYKKANSDTSNSGTVAEVNAQHYQQESSKLRQQISSLQNANSRTIVGDSINTMSLRDLKQVENRLEKGIAKIRARKNELLYAEVEYMQKREVELQNDNMYLRSKVVENER
notes: prey, AD fusion; also called PN20700; O. sativa MADS box protein MADS3
B9: OsMADS5 aa 113-225 (other)
chain: LLGEDLVPLSLKELEQLENQIEISLMNIRSSKNQQLLDQVFELKRKEQQLQDANKDLKRKIQETSGENMLHISCQDVGPSGHASEANQEFLHHAICDPSLHIGYQAYMDHLNQ
notes: prey, AD fusion; also called PN20770; O. sativa MADS box protein MADS5
B10: OsFDRMADS6 aa 115-246 (other)
chain: EDLESLNLKELQQLEQQLENSLKHIRSRKSQLMLESINELQRKEKSLQEENKVLQKELVEKQKVQKQQVQWDQTQPQTSSSSSSFMMREALPTTNISNYPAAAGERIEDVAAGQPQHVRIGLPPWMLSHING
notes: prey, AD fusion; also called PN19766; O. sativa MADS-box protein FDRMADS6
B11: OsFDRMADS8 aa 104-233 (other)
chain: LDESRRKILGENLEGCSIEELRGLEMKLEKSLHNIRLKKTELLERQIAKLKEKERTLLKDNENLRGKHRNLEAAALVANHMTTTTAPAAWPRDVPMTSSTAGAADAMDVETDLYIGLPGTERSSNRSETG
notes: prey, AD fusion; also called PN20698; O. sativa MADS-box protein FDRMADS8

For the first assay, the target named is T1, OsCS aa 316-583. The assay is described as follows: Y2H; output trait library. Put shortly:
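The values record whether an interaction was detected. In an automated, high-throughput yeast two-hybrid screen from Myriad Genetics Inc., rice protein fragments defined by amino-acid range were used as bait against rice prey clone libraries. Full-length genes were identified by BLAST comparison of the sequences encoding the interacting prey fragments against databases.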
As for B1, the binding result is listed as “binds”.
Consider B2, for which the binding result is “binds”.
On the same count and under the same terms, for B3 the value was “binds”; for B4, “binds”.
On the same count and under the same terms, in the case of B5 it was “binds”; in that of B6, “binds”.

The target of the next assay is T2, OsMADS45 aa 50-198. The assay is described as follows: Y2H; output trait library. Put shortly: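 A rice prey library, either the input trait or the output trait library, was screened with a bait clone encoding a defined amino-acid fragment of a rice protein. Screening used an automated, high-throughput yeast two-hybrid assay provided by Myriad Genetics Inc. (Salt Lake City, Utah). Retrieved prey clones had their encoding sequences compared by BLAST against databases so the interacting proteins could be identified.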
In the case of B7, the binding result is “binds”.
Same read-out and setting: in the case of B8 it was “binds”; in that of B9, “binds”; in that of B10, “binds”.
With B11, the binding result was “binds”.
